Test results taken from paper PMC3682188, “Membrane Binding and Self-Association of the Epsin N-Terminal Homology Domain” (Journal of Molecular Biology, 2012).

Molecular target: the molecule itself
Assay: EPR spectroscopy (spin-spin interaction of singly labeled protein, with spin dilution); bound to preformed lipid tubules (10% cholesterol/40% phosphatidylcholine/40% galactocerebrosides/10% PIP2); 10 uM protein with 60 ug tubes in 100 ul, 10 min at RT, pelleted at 152,800g; 20 mM Hepes pH 7.4, 150 mM NaCl; fully labeled compared with 33% labeled and 67% unlabeled protein

B1: rat epsin 1 ENTH domain (1-164), spin-labeled at residue 14 (domain or fragment)
chain: GSPGIHMSTSSLRRQMKNICHNYSEAEIKVREATSNDPWGPSSSLMSEIADLTYNVVAFSEIMSMIWKRLNDHGKNWRHVYKAMTLMEYLIKTGSERVSQQSKENMYAVQTLKDFQYVDRDGKDQGVNVREKAKQLVALLRDEDRLREERAHALKTKEKLAQTATASSAA
modifications: MTSL spin label (R1 side chain) on the cysteine introduced at position 14
notes: cysteine-less background (C96S) with a single cysteine at position 14; same construct as the crystallography study (PDB 1H0A); also called V14; source: E. coli BL21 (DE3), purified (glutathione-Sepharose, thrombin, ion exchange, gel filtration), labeled with MTSL; not shown: GST, N-terminal, cleaved
B1: binds.
